Results: the supplement of paper PMC7125110
± gives the standard error. This sample holds only a part of the variants without activity.

B1: glmS ribozyme (parent)
chain: AUAAAAGCGCCAGAACUACAGAAAUGUAGUUGACGAGGAGGAGGUUUAUCGAAUUUUCGGCGGAUGCCUCCAAA

How the values were obtained:
Settings in all cases: with glucosamine-6-phosphate
glucosamine-6-phosphate [1] = variants of: B1; assay: self-cleavage kobs at 640 uM GlcN6P; higher = faster cleavage; RNA array
Summary of the method: (§1)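 Tracking of barcoded ribozyme variants used a hybridised Cy3 probe at 37 °C, after in situ transcription by E. coli RNA polymerase on sequenced MiSeq chips. The flowed solution held 40 μM to 10 mM glucosamine-6-phosphate in HEPES/KCl/Mg(OAc)2 buffer, and imaging ran over ~14 h. kobs was taken from exponential decay fits of normalised per-tile medians, and kcat and KM from weighted Michaelis–Menten fits.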

glucosamine-6-phosphate [2] = variants of: B1; assay: self-cleavage kobs at 2500 uM GlcN6P; higher = faster cleavage; RNA array
Summary of the method: as §1

glucosamine-6-phosphate [3] = variants of: B1; assay: self-cleavage kobs at 160 uM GlcN6P; higher = faster cleavage; RNA array
Summary of the method: as §1

glucosamine-6-phosphate [4] = variants of: B1; assay: self-cleavage kobs at 10000 uM GlcN6P; higher = faster cleavage; RNA array
Summary of the method: as §1

Variant	self-cleavage kobs at 640 uM GlcN6P (glucosamine-6-phosphate [1]) [s⁻¹]	self-cleavage kobs at 2500 uM GlcN6P (glucosamine-6-phosphate [2]) [s⁻¹]	self-cleavage kobs at 160 uM GlcN6P (glucosamine-6-phosphate [3]) [s⁻¹]	self-cleavage kobs at 10000 uM GlcN6P (glucosamine-6-phosphate [4]) [s⁻¹]
U57A G63U	< 1e-05	–	–	–
A6C G13C G51U	< 1e-05	–	–	–
A6C C16A U31C	< 1e-05	< 1e-05	–	–
C8U G13A G35A G38A G63A C68U	0.001 ± 0.00031	–	–	–
G44C U47C A53G	< 1e-05	–	–	–
G37A A64G C67G	< 1e-05	–	–	–
U45C U46G C67G	9.48e-05 ± 2.9e-05	–	–	–
C10U G37C G60A	< 1e-05	–	–	–
A33G G37U G59C	–	< 1e-05	< 1e-05	–
A14G G35U A52U	< 1e-05	–	–	–
A14G G35A G43A C61U	< 1e-05	–	–	–
C8U G43A C58G	< 1e-05	< 1e-05	–	–
A48U C50G C70U	9.42e-05 ± 2.9e-05	–	–	–
C11G C34U U69G	0.000508 ± 0.00017	–	–	–
G9C G32U C50U	< 1e-05	–	–	–
G7C C61A G63C	< 1e-05	–	–	–
G9U G59C G63C C70U	< 1e-05	–	–	–
C8G A33U G41U	< 1e-05	–	–	–
C10A G38A G40U C50G G51U	< 1e-05	< 1e-05	–	–
C16U A39G C58A	9.4e-05 ± 1.7e-05	0.000347 ± 4.1e-05	–	–
C50U G63U C68G	0.000126 ± 5e-05	7.59e-05 ± 3.2e-05	–	–
G40C G59U	< 1e-05	< 1e-05	< 1e-05	–
C16U A39U A42C	8.5e-05 ± 2.3e-05	0.000172 ± 3.6e-05	–	–

Variant	self-cleavage kobs at 640 uM GlcN6P (glucosamine-6-phosphate [1]) [s⁻¹]	self-cleavage kobs at 2500 uM GlcN6P (glucosamine-6-phosphate [2]) [s⁻¹]	self-cleavage kobs at 160 uM GlcN6P (glucosamine-6-phosphate [3]) [s⁻¹]	self-cleavage kobs at 10000 uM GlcN6P (glucosamine-6-phosphate [4]) [s⁻¹]
A15C G29U U55A	0.000758 ± 0.0002	–	–	–
A33C C61A A64U C68U	< 1e-05	–	–	–
G29U G44C	–	–	< 1e-05	–
C34U U55C C67U	< 1e-05	–	–	–
C8A A33G C34A	< 1e-05	–	–	–
C10U C16A A52U	< 1e-05	–	–	–
G35A U45G U57C	< 1e-05	–	–	–
G37A A48U U54C	< 1e-05	–	–	–
A52C U54C	–	–	< 1e-05	–
G32C U56A U65G U69G	0.000283 ± 0.0001	6.06e-05 ± 3e-05	–	–
U30A G40U G60C C61A	< 1e-05	< 1e-05	–	–
C11A C67U C71G	0.000295 ± 9e-05	0.00108 ± 0.00018	–	4.96e-05 ± 1.3e-05
G9U U54G C68U	< 1e-05	–	–	–
G35A G41U U46A	< 1e-05	< 1e-05	–	–
A6U C50A G60A C70A	0.000136 ± 5e-05	–	–	–
G51C G63U	< 1e-05	–	–	< 1e-05
U47A A48U C58G	< 1e-05	< 1e-05	–	–
A6G U57A C68G	7.18e-05 ± 2.3e-05	–	–	–
G35U G38U C67A	< 1e-05	–	–	–
C11U G44U C70G	< 1e-05	–	–	–
G37A G43U G62U G66C C67A	< 1e-05	< 1e-05	–	< 1e-05
G38A G44U G62U	< 1e-05	< 1e-05	–	–
A42G A64G C70A	4.59e-05 ± 2.2e-05	0.000247 ± 6.8e-05	–	–

Variant	self-cleavage kobs at 640 uM GlcN6P (glucosamine-6-phosphate [1]) [s⁻¹]	self-cleavage kobs at 2500 uM GlcN6P (glucosamine-6-phosphate [2]) [s⁻¹]	self-cleavage kobs at 160 uM GlcN6P (glucosamine-6-phosphate [3]) [s⁻¹]	self-cleavage kobs at 10000 uM GlcN6P (glucosamine-6-phosphate [4]) [s⁻¹]
C10A A42G U47C C50G C70U	< 1e-05	–	–	–
A36C G37A G43U C61G C67A	< 1e-05	< 1e-05	–	–
C8U C50G G63U	–	5.35e-05 ± 2.6e-05	0.000108 ± 2.8e-05	–
C11G U55G G59C	0.00067 ± 0.00021	–	–	–
G7U G66A C67U	< 1e-05	< 1e-05	–	–
U30A G40C U49G	< 1e-05	< 1e-05	< 1e-05	–
G7U G13C A39G	< 1e-05	< 1e-05	< 1e-05	–
A53G G60A G66C	–	–	< 1e-05	–
C8A A15G G44A C61U C71A	< 1e-05	< 1e-05	–	–
A33U U45C C50A	< 1e-05	< 1e-05	–	–
C8G G32A U46C A53U G63C	< 1e-05	< 1e-05	–	–
C11G G44U C50G G62C	< 1e-05	< 1e-05	–	–
A33U U45G U47A C67A C68G	< 1e-05	< 1e-05	–	–
C11U A14G A52G	8.93e-05 ± 1.6e-05	0.00029 ± 8e-05	–	–
A14G A42G G59C	< 1e-05	–	–	–
G7U U31C C50G	0.000324 ± 0.00016	–	–	–
C16A G66U C68A	0.0001 ± 3.2e-05	–	–	–
C16A G66U C68G	6.61e-05 ± 2.5e-05	6.82e-05 ± 2.8e-05	–	–
U57G G59U	< 1e-05	< 1e-05	–	< 1e-05
A14G C67U C71U	0.000875 ± 0.00018	0.00249 ± 0.00091	–	–
G13A U57A A64C C68A	0.000763 ± 0.00019	–	–	–
A14U U47C C58G C68G	5.55e-05 ± 1.6e-05	0.000171 ± 4e-05	–	–
A36G G41A C61G C71U	< 1e-05	< 1e-05	–	–

Variant	self-cleavage kobs at 640 uM GlcN6P (glucosamine-6-phosphate [1]) [s⁻¹]	self-cleavage kobs at 2500 uM GlcN6P (glucosamine-6-phosphate [2]) [s⁻¹]	self-cleavage kobs at 160 uM GlcN6P (glucosamine-6-phosphate [3]) [s⁻¹]	self-cleavage kobs at 10000 uM GlcN6P (glucosamine-6-phosphate [4]) [s⁻¹]
U45G U46C C71U	0.000925 ± 0.00024	0.00445 ± 0.001	–	–
U31A G37U U47A U54C U69G	5.3e-05 ± 2e-05	–	–	–
A36U A39U C71U	< 1e-05	–	–	–
G32C A33U C68U C71G	< 1e-05	< 1e-05	–	–
A36U U45A G63U	< 1e-05	< 1e-05	–	–
A42C U46G U49A	< 1e-05	–	–	–
G7U A14G G40U	< 1e-05	< 1e-05	–	–
A42C G44U	< 1e-05	–	–	< 1e-05
C8U C58U G62C A64U	< 1e-05	< 1e-05	–	–
C8A C34U A36U G59U G62A	< 1e-05	–	–	–
U30G U45A G59C	< 1e-05	< 1e-05	–	–
A12G U30G G43C U46G	< 1e-05	–	–	–
G32U G38U	< 1e-05	< 1e-05	–	–
G29C U49C C50G G51U U65C	< 1e-05	< 1e-05	–	–
G9U U54C	< 1e-05	–	–	–
A36C U46G A52G G60U	< 1e-05	< 1e-05	< 1e-05	–
A6G G9C G60C G63A C68U	< 1e-05	–	–	–
C10G G60U G63U	< 1e-05	–	–	–
C11G C58A C68A	0.000165 ± 6.6e-05	–	–	–
A12C U46A G62C	< 1e-05	–	–	–
G13U G60U C68A C71A	< 1e-05	< 1e-05	–	–
C16A C34G C68G	0.000145 ± 4.7e-05	0.000193 ± 6.5e-05	–	4.24e-05 ± 2e-05
A39G U47G G59C	< 1e-05	–	–	–

Variant	self-cleavage kobs at 640 uM GlcN6P (glucosamine-6-phosphate [1]) [s⁻¹]	self-cleavage kobs at 2500 uM GlcN6P (glucosamine-6-phosphate [2]) [s⁻¹]	self-cleavage kobs at 160 uM GlcN6P (glucosamine-6-phosphate [3]) [s⁻¹]	self-cleavage kobs at 10000 uM GlcN6P (glucosamine-6-phosphate [4]) [s⁻¹]
A14G A36U C68A	< 1e-05	0.00425 ± 0.0019	–	–
G13C A48G C71U	–	–	< 1e-05	–
G32C A48U A64C	< 1e-05	–	–	–
G29U U45C U55G	3.35e-05 ± 1.5e-05	7.82e-05 ± 1.1e-05	–	–
G41C G51U A64C	< 1e-05	< 1e-05	–	–
C10G U47C U49C U55G	< 1e-05	–	–	–
G9U C10G C11A	< 1e-05	–	–	–
A42U G51A G63U	< 1e-05	–	–	–
U17G G63A	< 1e-05	< 1e-05	–	–
G9C A39G G40U	< 1e-05	< 1e-05	–	< 1e-05
G40A A42G G51U U57A U69C	< 1e-05	–	–	–
C34A C67A	< 1e-05	–	–	< 1e-05
C10G C11G G32C G59C C67G	< 1e-05	–	–	–
A42C G43U C70U	< 1e-05	< 1e-05	–	–
G7C C8G G9C C19A C61A	< 1e-05	< 1e-05	–	–
A6U U56G U65A C67A	9.86e-05 ± 3e-05	0.000119 ± 2.9e-05	–	–
U31A U47C U54G	0.000284 ± 6e-05	0.00068 ± 0.00013	–	–
C11G C16G G38A G63A	< 1e-05	–	–	–
C11G C58G C70U	8.61e-05 ± 2.4e-05	–	–	–
U31G G51C U57C	< 1e-05	< 1e-05	< 1e-05	–
G43A U55A C58U	< 1e-05	–	–	–
U65G U69C C71U	6.22e-05 ± 1.6e-05	6.97e-05 ± 2.6e-05	–	–
G40U G41U U49G C61G	< 1e-05	< 1e-05	–	–

Variant	self-cleavage kobs at 640 uM GlcN6P (glucosamine-6-phosphate [1]) [s⁻¹]	self-cleavage kobs at 2500 uM GlcN6P (glucosamine-6-phosphate [2]) [s⁻¹]	self-cleavage kobs at 160 uM GlcN6P (glucosamine-6-phosphate [3]) [s⁻¹]	self-cleavage kobs at 10000 uM GlcN6P (glucosamine-6-phosphate [4]) [s⁻¹]
G29U U69A C71G	8.16e-05 ± 3.4e-05	–	–	–
G13C U55A U69A	0.00022 ± 7e-05	–	–	–
A39G C67G C68G	9.65e-05 ± 2.5e-05	7.78e-05 ± 1.7e-05	–	–
C10A C61G C67G	0.00401 ± 0.0011	–	–	–
A6U A36C A39U C71G	< 1e-05	< 1e-05	–	–
C8U G35C C68U	< 1e-05	–	–	–
U49G G62C	< 1e-05	–	–	–
G41U C58G C61U A64U C71U	< 1e-05	–	–	–
A15G C16G C50G U54C	0.00183 ± 0.00059	–	–	–
C11G U49G U57C	–	–	< 1e-05	–
C11G U30G A42U A53U G63U U65A C68G	< 1e-05	–	–	–
A42U U47A U49A	< 1e-05	< 1e-05	–	–
U30G A48U U65A U69G C70U	4.35e-05 ± 2e-05	–	–	–
A14U U57C G66U	–	–	< 1e-05	–
A12U G32U G41A U56A A64U U65A	< 1e-05	< 1e-05	–	–
G7U A36C A42C G66C	< 1e-05	–	–	–
C16U G29U U31A	0.00108 ± 0.00033	0.0037 ± 0.00095	–	–
G41A U49C G60U	< 1e-05	–	–	–
C8U A33C G40C G62A C70U	< 1e-05	–	–	–
C16U U46C U55A C70U	0.00101 ± 0.00034	0.00219 ± 0.0006	–	0.00226 ± 0.00047
G35U A48C C68A	< 1e-05	–	–	–
